Where a chain is given by its changes, count along the chain named. One block for each molecule: values may come before it.
Legend:
[1] = target: T1, human EphA4 (binding to human Ephrin A5) (Homo sapiens, UniProt P54764); assay: Human EphA4-human ligand binding inhibition ELISA of humanized antibodies (biotinylated Ephrin A5-Fc); conditions: biotinylated human Ephrin A5-Fc 0.7 nM
T1 construct: made in house; not restated for the human SEAP-His protein
Description: Each anti-EphA4 monoclonal humanized antibody obtained in Example 16 was evaluated for its inhibitory activity against the binding between human EphA4 and its human ligand according to the following steps. Each well of a 96-well plate (Nunc) was coated with an anti-alkaline phosphatase antibody (Thermo Fisher Scientific). After incubation overnight at 4° C., each well was blocked with 1% BlockAce (DS Pharma Biomedical) at room temperature for 1 hour. After washing with 0.05% Tween 20/PBS (Thermo Fisher Scientific) three times, the human EphA4 extracellular region-SEAP-His protein obtained by the method of Example 2 was added (final concentration: 10 nM) to each well and incubated at room temperature for 1 hour. After washing three times, a ligand and each serially diluted humanized antibody of antibody A (0, 0.003, 0.01, 0.03, 0.1, 0.3, 1, 3, 10, 30, 100, 300, 1000, and 3000 nM) were added to each well. The ligand used was biotinylated human Ephrin A5-Fc chimera (R&D Systems, final concentration: 0.7 nM). After incubation at room temperature for 1 hour and subsequent washing three times, horseradish peroxidase-labeled streptavidin (GE Healthcare) was added thereto and incubated at room temperature for 1 hour. After washing three times, a TMBZ (3,3′,5,5′-tetramethylbenzidine, Sigma-Aldrich) solution was added to each well and incubated at room temperature for 2 minutes. An equal amount of a reaction stopping solution (1N H2SO4, Wako Pure Chemical Industries) was added to each well. The absorbance at 450 nm was read using a microplate reader (PerkinElmer).

[2] = target: T2, human EphA7 (Homo sapiens, UniProt Q15375); assay: Selectivity ELISA of humanized antibodies for human Eph receptor; format: binding; conditions: coated protein 1 nM
T2 construct: a protein of the extracellular region of each human Eph receptor fused with the SEAP protein and the His tag; made in house; host or cells: Expi293F cells (culture supernatant)
T2 sequence (Q15375 28-555 limits assumed): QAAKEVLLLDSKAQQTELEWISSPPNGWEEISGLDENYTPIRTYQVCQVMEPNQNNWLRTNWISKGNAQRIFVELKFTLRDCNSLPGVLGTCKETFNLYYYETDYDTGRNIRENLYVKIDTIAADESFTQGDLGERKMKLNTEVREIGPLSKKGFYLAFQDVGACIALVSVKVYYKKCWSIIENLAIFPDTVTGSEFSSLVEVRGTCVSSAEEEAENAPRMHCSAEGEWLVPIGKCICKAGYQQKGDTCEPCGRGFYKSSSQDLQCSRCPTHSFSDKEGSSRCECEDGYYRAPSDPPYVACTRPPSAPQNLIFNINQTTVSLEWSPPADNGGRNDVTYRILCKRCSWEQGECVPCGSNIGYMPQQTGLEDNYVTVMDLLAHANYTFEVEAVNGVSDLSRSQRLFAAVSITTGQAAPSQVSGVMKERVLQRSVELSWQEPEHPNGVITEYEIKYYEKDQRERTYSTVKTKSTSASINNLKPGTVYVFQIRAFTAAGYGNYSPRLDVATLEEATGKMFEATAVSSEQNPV
Procedure, shortened: (§1)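 Human Eph ECD-SEAP-His fusions, harvested after 5 days of Expi293F expression, are captured on anti-His-coated wells (1 nM final). Bound humanized antibody is detected with HRP anti-IgG and TMB at 450 nm.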

[3] = target: T3, human EphA8 (Homo sapiens, UniProt P29322); assay: as above; format: binding; conditions: coated protein 1 nM
T3 construct: a protein of the extracellular region of each human Eph receptor fused with the SEAP protein and the His tag; made in house; host or cells: Expi293F cells (culture supernatant)
T3 sequence (P29322 28-542 limits assumed): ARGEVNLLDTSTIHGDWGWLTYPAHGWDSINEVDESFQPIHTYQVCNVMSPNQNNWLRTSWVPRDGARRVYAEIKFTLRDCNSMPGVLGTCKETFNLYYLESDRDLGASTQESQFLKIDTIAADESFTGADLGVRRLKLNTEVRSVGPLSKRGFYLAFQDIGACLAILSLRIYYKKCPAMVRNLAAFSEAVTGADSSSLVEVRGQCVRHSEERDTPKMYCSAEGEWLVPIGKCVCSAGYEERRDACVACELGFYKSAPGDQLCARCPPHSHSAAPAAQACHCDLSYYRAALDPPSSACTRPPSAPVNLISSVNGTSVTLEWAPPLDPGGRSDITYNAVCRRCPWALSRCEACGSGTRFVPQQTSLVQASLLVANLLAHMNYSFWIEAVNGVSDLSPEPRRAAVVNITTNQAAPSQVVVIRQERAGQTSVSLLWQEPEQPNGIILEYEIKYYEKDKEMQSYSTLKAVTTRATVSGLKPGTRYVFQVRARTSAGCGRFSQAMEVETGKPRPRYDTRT
Procedure, shortened: as §1

T1 sequence (P54764 20-547): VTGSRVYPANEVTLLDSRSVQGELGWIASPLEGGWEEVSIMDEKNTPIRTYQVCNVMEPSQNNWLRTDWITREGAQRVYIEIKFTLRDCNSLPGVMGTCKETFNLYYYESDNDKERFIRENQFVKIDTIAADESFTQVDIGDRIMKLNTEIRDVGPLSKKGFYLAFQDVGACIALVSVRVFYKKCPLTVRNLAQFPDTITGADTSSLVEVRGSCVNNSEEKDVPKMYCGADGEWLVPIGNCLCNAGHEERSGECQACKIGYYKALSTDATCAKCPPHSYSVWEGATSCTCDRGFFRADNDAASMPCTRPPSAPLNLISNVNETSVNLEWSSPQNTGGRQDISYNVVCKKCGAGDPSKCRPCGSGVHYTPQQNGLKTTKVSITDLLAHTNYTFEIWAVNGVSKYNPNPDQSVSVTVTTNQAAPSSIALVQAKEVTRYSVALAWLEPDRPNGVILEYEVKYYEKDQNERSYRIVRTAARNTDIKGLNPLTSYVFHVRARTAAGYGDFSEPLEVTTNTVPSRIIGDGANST

IC50 [1]: 3.5 nM
hEphA7-SEAP-: absorbance at 450 nm, percentage with respect to hEphA4-SEAP-His as 100% [2]: 6.4%
hEphA8-SEAP-: absorbance at 450 nm, percentage with respect to hEphA4-SEAP-His as 100% [3]: 6.7%
B1: 92 (antibody, V domains shown)
VL: DIQMTQSPSSLSASVGDRVTITCRASENIYRNLAWYQQKPGKAPQLLLYAATNLADGVPSRFSGSGSGTDYTLTISSLQPEDFATYYCQHFWGTPWTFGQGTKVEIK
VH: QIQLVQSGSELKKPGASVKVSCKASGYTFTDYSMHWVRQAPGQGLKWMGWINTETGEPTYADDFKGRFVFSLDTSVSTAYLQISSLKAEDTAVYYCARIPLYYYGSRYWYFDVWGQGTTVTVSS
modifications: constant regions without entry; synthetic humanized antibody light chain variable region sequence; synthetic humanized antibody heavy chain variable region sequence

IC50 [1]: 3 nM
hEphA7-SEAP-: absorbance at 450 nm, percentage with respect to hEphA4-SEAP-His as 100% [2]: 5.3%
hEphA8-SEAP-: absorbance at 450 nm, percentage with respect to hEphA4-SEAP-His as 100% [3]: 5.5%
B2: 141 (antibody, V domains shown)
VH: B1 VH with I2V, K46E
VL: B1 VL with Q45K, L48V
modifications: synthetic humanized antibody heavy chain variable region sequence; synthetic humanized antibody light chain variable region sequence

IC50 [1]: 2.4 nM
hEphA7-SEAP-: absorbance at 450 nm, percentage with respect to hEphA4-SEAP-His as 100% [2]: 5.6%
hEphA8-SEAP-: absorbance at 450 nm, percentage with respect to hEphA4-SEAP-His as 100% [3]: 5.8%
B3: 73 (antibody, V domains shown)
VH: B1 VH
VL: EIVMTQSPATLSVSPGERATLSCRASENIYRNLAWYQQKPGQSPRLLIYAATNLADGIPARFSGSGSGTEYTLTISSLQSEDFAVYYCQHFWGTPWTFGQGTKVEIK
modifications: synthetic humanized antibody heavy chain variable region sequence; synthetic humanized antibody light chain variable region sequence

IC50 [1]: 3.7 nM
hEphA7-SEAP-: absorbance at 450 nm, percentage with respect to hEphA4-SEAP-His as 100% [2]: 5.3%
hEphA8-SEAP-: absorbance at 450 nm, percentage with respect to hEphA4-SEAP-His as 100% [3]: 5.4%
B4: 96 (antibody, V domains shown)
VL: B3 VL
VH: B1 VH with I2V
modifications: constant regions without entry; synthetic humanized antibody light chain variable region sequence; synthetic humanized antibody heavy chain variable region sequence

IC50 [1]: 2.5 nM
hEphA7-SEAP-: absorbance at 450 nm, percentage with respect to hEphA4-SEAP-His as 100% [2]: 5.2%
hEphA8-SEAP-: absorbance at 450 nm, percentage with respect to hEphA4-SEAP-His as 100% [3]: 5.3%
B5: 71 (antibody, V domains shown)
VH: B1 VH with D62Q, D63G, K65T
VL: B3 VL
modifications: synthetic humanized antibody heavy chain variable region sequence; synthetic humanized antibody light chain variable region sequence

IC50 [1]: 3.3 nM
hEphA7-SEAP-: absorbance at 450 nm, percentage with respect to hEphA4-SEAP-His as 100% [2]: 5.5%
hEphA8-SEAP-: absorbance at 450 nm, percentage with respect to hEphA4-SEAP-His as 100% [3]: 6.0%
B6: 139 (antibody)
VH: B1 VH with I2V, K46E, D62Q, D63G, K65T
VL: B1 VL with Q45K, L48V
chain: ASTKGPSVFPLAPSSRSTSESTAALGCLVKDYFPEPVTVSWNSGALTSGVHTFPAVLQSSGLYSLSSVVTVPSSNFGTQTYTCNVDHKPSNTKVDKTVERKSCVECPPCPAPPAAAPSVFLFPPKPKDTLMISRTPEVTCVVVDVSHEDPEVQFNWYVDGVEVHNAKTKPREEQFNSTFRVVSVLTVVHQDWLNGKEYKCKVSNKGLPAPIEKTISKTKGQPREPQVYTLPPSREEMTKNQVSLTCLVKGFYPSDIAVEWESNGQPENNYKTTPPMLDSDGSFFLYSKLTVDKSRWQQGNVFSCSVMHEALHNHYTQKSLSLSPG
modifications: synthetic humanized antibody heavy chain variable region sequence; synthetic humanized antibody light chain variable region sequence; synthetic antibody constant region sequence

IC50 [1]: 2.7 nM
hEphA7-SEAP-: absorbance at 450 nm, percentage with respect to hEphA4-SEAP-His as 100% [2]: 6.1%
hEphA8-SEAP-: absorbance at 450 nm, percentage with respect to hEphA4-SEAP-His as 100% [3]: 7.0%
B7: 94 (antibody, V domains shown)
VL: B3 VL
VH: B1 VH with I2V, D62Q, D63G, K65T
modifications: constant regions without entry; synthetic humanized antibody light chain variable region sequence; synthetic humanized antibody heavy chain variable region sequence

IC50 [1]: 2.4 nM
hEphA7-SEAP-: absorbance at 450 nm, percentage with respect to hEphA4-SEAP-His as 100% [2]: 5.2%
hEphA8-SEAP-: absorbance at 450 nm, percentage with respect to hEphA4-SEAP-His as 100% [3]: 5.4%
B8: 140 (antibody, V domains shown)
VH: B1 VH with I2V, D62Q, D63G, K65T
VL: B1 VL with Q45K, L48V
modifications: synthetic humanized antibody heavy chain variable region sequence; synthetic humanized antibody light chain variable region sequence

IC50 [1]: 2.9 nM
hEphA7-SEAP-: absorbance at 450 nm, percentage with respect to hEphA4-SEAP-His as 100% [2]: 4.9%
hEphA8-SEAP-: absorbance at 450 nm, percentage with respect to hEphA4-SEAP-His as 100% [3]: 5.4%
B9: 138 (antibody, V domains shown)
VH: B1 VH with D62Q, D63G, K65T
VL: B1 VL with Q45K, L48V
modifications: synthetic humanized antibody heavy chain variable region sequence; synthetic humanized antibody light chain variable region sequence

IC50 [1]: 3.1 nM
hEphA7-SEAP-: absorbance at 450 nm, percentage with respect to hEphA4-SEAP-His as 100% [2]: 4.4%
hEphA8-SEAP-: absorbance at 450 nm, percentage with respect to hEphA4-SEAP-His as 100% [3]: 4.4%
B10: 95 (antibody, V domains shown)
VL: B3 VL
VH: B1 VH with I2V, K46E
modifications: constant regions without entry; synthetic humanized antibody light chain variable region sequence; synthetic humanized antibody heavy chain variable region sequence

IC50 [1]: 2.5 nM
hEphA7-SEAP-: absorbance at 450 nm, percentage with respect to hEphA4-SEAP-His as 100% [2]: 4.9%
hEphA8-SEAP-: absorbance at 450 nm, percentage with respect to hEphA4-SEAP-His as 100% [3]: 5.0%
B11: 93 (antibody, V domains shown)
VL: B3 VL
VH: B1 VH with I2V, K46E, D62Q, D63G, K65T
modifications: constant regions without entry; synthetic humanized antibody light chain variable region sequence; synthetic humanized antibody heavy chain variable region sequence
